The record followed here is patent US20090081786A1, “Peptide sequences for modulation of protein kinase C” (priority 2006, published 2009).

The labels stand for the following.
T1: annexin V (Homo sapiens, UniProt P08758)
T1 sequence (P08758 1-320): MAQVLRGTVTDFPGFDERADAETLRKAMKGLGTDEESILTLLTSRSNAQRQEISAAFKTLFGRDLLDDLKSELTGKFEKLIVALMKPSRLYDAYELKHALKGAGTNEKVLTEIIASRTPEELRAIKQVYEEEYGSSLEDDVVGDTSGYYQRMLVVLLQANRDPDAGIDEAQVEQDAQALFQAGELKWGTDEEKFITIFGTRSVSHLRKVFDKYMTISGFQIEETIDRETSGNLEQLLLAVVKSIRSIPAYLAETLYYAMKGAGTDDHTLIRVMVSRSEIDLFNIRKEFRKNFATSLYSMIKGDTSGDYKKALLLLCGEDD

B1: δ-PKC: full length δ-protein kinase C (SEQ ID NO:16) (protein, listed as Homo sapiens)
chain: MAPFLRISFNSYELGSLQVEDEASQPFCAVKMKEALSTERGKTLVQKKPTMYPEWKTTFDAHIYEGRVIQIVLMRAAEDPVSEVTVGVSVLAERCKKNNGKAEFWLDLQPQAKVLMCVQYFLEDGDCKQSMRSEEEAKFPTMNRRGAIKQAKIHYIKNHEFIATFFGQPTFCSVCKEFVWGLNKQGYKCRQCNAAIHKKCIDKIIGRCTGTATNSRDTIFQKERFNIDMPHRFKVYNYMSPTFCDHCGSLLWGLVKQGLKCEDCGMNVHHKCREKVANLCGINQKLLAEALNQVTQRSSRKLDTTESVGIYQGFEKKPEVSGSDILDNNGTYGKIWEGSTRCTLENFTFQKVLGKGSFGKVLLAELKGKDKYFAIKCLKKDVVLIDDDVECTMVEKRVLALAWESPFLTHLICTFQTKDHLFFVMEFLNGGDLMFHIQDKGRFELYRATFYAAEIICGLQFLHSKGIIYRDLKLDNVMLDRDGHIKIADFGMCKENIFGEGRASTFCGTPDYIAPEILQGLKYSFSVDWWSFGVLLYEMLIGQSPFHGDDEDELFESIRVDTPHYPRWITKESKDIMEKLFERDPDKRLGVTGNIRIHPFFKTINWSLLEKRKVEPPFKPKVKSPSDYSNFDPEFLNEKPQLSFSDKNLIDSMDQEAFHGFSFVNPKFEQFLDI
B2: δ-V1: V1/C2 domain of δ-PKC (SEQ ID NO:18), used as myelin basic protein fusion (protein)
chain: MAPFLRISFNSYELGSLQAEDDASQPFCAVKMKEALTTDRGKTLVQKKPTMYPEWKSTFDAHIYEGRVIQIVLMRAAEDPMSEVTVGVSVLAERCKKNNGKAEFWLDLQPQAKVLMCVQYFLEDGDCKQSMRSEEEAMFPTMNRRGAIKQAKIHYIKNHE
modifications: left off: large carriers
B3: ε-V1: V1 region of ε-PKC (SEQ ID NO:20) (protein, listed as Homo sapiens)
chain: MVVFNGLLKIKICEAVSLKPTAWSLRHAVGPRPQTFLLDPYIALNVDDSRIGQTATKQKTNSPAWHDEFVTDVCNGRKIELAVFHDAPIGYDDFVANCTIQFEELLQNGSRHFEDWIDLEPEGKVYVIIDLSGSSGEAPKDNEE

The test concerns the target T1, annexin V. Description: overlay binding assay on immobilized annexin V. The settings on record: immobilized annexin V on nitrocellulose, overlay 37° C. 30 min, Western blotting. As for the experimental part: A binding assay was performed in vitro, using an immobilized annexin V with the δ-PKC, δ-V1 (SEQ ID NO:18) (the C2 domain of δ-PKC), δ-V5 (SEQ ID NO:19), and ε-V1 (SEQ ID NO:20) peptides. These domains are recognized in the art as participating in protein-protein interactions.
10 μg of the annexin V was separated on 12% SDS-PAGE gel and transferred to nitrocellulose, and then cut into strips. The strips were incubated with blocking buffer (50 mM Tris pH 7.5, 200 mM NaCl, 3% bovine serum albumin, 0.1% PEG20). The strips were then incubated in overlay buffer (50 mM Tris pH 7.5, 200 mM NaCl, 1% PEG20, 12 mM β-mercaptoethanol) in the presence where appropriate of 30 μg crude bacterial cell lysate containing fusion proteins of myelin basic protein (MBP)-delta V1 PKC (MBP-δV1), glutathione-S-transferase-delta V5 PKC (GST-δV5), and full length sequences of δ-PKC or rat purified ε-PKC (SEQ ID NO:21) at 37° C. for 30 min. The strips where then washed with wash buffer (50 mM Tris pH 7.5, 200 mM NaCl, 0.1% PEG20, 12 mM β-mercaptoethanol), and then incubated with fixative (0.2% formaldehyde in PBS) and neutralizing solution (0.2M glycine in PBS) at room temperature 20 min each. After washing with buffer, the strips were probed with antibodies according to the overlay protein, and resulting bands were visualized using ECL Western blotting.
In general terms: A western blot detects proteins with antibodies after separation by electrophoresis.
Take B1: the “binding to annexin V” value was “bind to the annexin V”.

Take B2: the “binding to annexin V” value was “bind to the annexin V”.

For the molecule B3, the “binding to annexin V” value is recorded as “did not bind to the annexin V”.
